Values quoted from earlier work as cited in US9486409B2, “Peptide nanoparticles and uses therefor” (Anterios, Inc., priority 2006, dated 2016).

Details: unmodified peptide, prior studies (Katayama et al.)

## KTTKS (peptide that may promote extra-cellular matrix production) [unmodified pentapeptide known to promote extra-cellular matrix production]
  penetration of intact skin: cannot penetrate the intact skin without chemical modification
